The text below walks through data of US20250230247A1.

The term EC50 denotes the concentration needed to bring the measured effect to its halfway point.

Experiment [1] deals with human Dectin-1 expressed on cells (isoform not given) (human) (UniProt Q9BXN2).
The target in experiment [2] is T1, human Dectin-1 isoform A (human) (UniProt Q9BXN2).
T1 sequence: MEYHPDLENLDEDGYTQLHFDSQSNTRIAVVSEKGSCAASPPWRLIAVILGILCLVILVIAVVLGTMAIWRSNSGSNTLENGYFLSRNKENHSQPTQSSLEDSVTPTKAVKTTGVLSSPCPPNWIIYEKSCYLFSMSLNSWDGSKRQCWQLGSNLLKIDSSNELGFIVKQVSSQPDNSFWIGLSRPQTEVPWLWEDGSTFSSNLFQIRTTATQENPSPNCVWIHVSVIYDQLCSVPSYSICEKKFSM
The experiment can be described thus: flow cytometry on HEK293F hDectin-1a FL cells (summary table). (In general: In flow cytometry, cells or beads pass a laser one at a time.)

The target in experiment [3] is T1, human Dectin-1 isoform A (human). The experiment can be described thus: flow cytometry on HEK-Blue hDectin-1a cells (summary table).
Experiment [4] shares this target. The experiment can be described thus: flow cytometry on HEK-Blue hDectin-1a cells.
The target of experiment [5] is human Dectin-1 expressed on cells (isoform not given) (human) (UniProt Q9BXN2). The experiment can be described thus: flow cytometry on human monocytes (summary table).
For experiment [6] the target is unchanged. The experiment can be described thus: flow cytometry on human monocytes.
Experiment [7] concerns the target T1, human Dectin-1 isoform A (human). The experiment can be described thus: flow cytometry on HEK293F hDectin-1a FL cells.

B1: commercial anti-Dectin-1 antibody 15E2 (antibody, from a related filing, V domains shown)
VH: QWQLQQSGAELARPGASWKMSCKASGYTFTTYTMHWWKQRPGQGLEWIGYINPSSGYTNYNQKFKDKATLTADKSSSTASMQLSSLTSEDSAWYYCARERAVLVPYAMDYWGQGTSVTVSS
VL: QIVLTQSPAVMSASPGEKWTITCTASSSLSYMHWFQQKPGTSPKLWLYSTSILASGVPTRFSGSGSGTSYSLTISRMEAEDAATYYCQQRSSSPFTFGSGTKLEIK
B1 displayed an IFNg secretion in PBMC, immobilized antibody (fold change to isotype) in experiment [1] of 1.6. The IL6 secretion in PBMC, immobilized antibody (fold change to isotype) in experiment [1] was 2.6. The same molecule yielded a TNFa secretion in PBMC, immobilized antibody (fold change to isotype) in experiment [1] of 3. In addition, the EC50 in experiment [2] was 1.4 nM; in experiment [3] it was 1.2 nM; in experiment [4], 1.2 nM; in experiment [5], 0.6 nM; in experiment [6], 0.6 nM; in experiment [7], 1.4 nM.
